Test results published in patent US20210115092A1 (YEDA RESEARCH AND DEVELOPMENT, published 2021).

Biological target: T1, Flag-Cas9 (wild-type, unmodified SpCas9) (Streptococcus pyogenes, UniProt Q99ZW2 2-1368)
T1 construct: expressed in HEK293; also called original Cas9; wt Cas9; not shown: Flag tag and N-terminal NLS of the vector; C-terminal NLS and what remains of the T2A peptide
Experiment: co-immunoprecipitation, anti-Flag IP from transfected HEK293 extracts, immunoblot

T1 sequence (Q99ZW2 2-1368): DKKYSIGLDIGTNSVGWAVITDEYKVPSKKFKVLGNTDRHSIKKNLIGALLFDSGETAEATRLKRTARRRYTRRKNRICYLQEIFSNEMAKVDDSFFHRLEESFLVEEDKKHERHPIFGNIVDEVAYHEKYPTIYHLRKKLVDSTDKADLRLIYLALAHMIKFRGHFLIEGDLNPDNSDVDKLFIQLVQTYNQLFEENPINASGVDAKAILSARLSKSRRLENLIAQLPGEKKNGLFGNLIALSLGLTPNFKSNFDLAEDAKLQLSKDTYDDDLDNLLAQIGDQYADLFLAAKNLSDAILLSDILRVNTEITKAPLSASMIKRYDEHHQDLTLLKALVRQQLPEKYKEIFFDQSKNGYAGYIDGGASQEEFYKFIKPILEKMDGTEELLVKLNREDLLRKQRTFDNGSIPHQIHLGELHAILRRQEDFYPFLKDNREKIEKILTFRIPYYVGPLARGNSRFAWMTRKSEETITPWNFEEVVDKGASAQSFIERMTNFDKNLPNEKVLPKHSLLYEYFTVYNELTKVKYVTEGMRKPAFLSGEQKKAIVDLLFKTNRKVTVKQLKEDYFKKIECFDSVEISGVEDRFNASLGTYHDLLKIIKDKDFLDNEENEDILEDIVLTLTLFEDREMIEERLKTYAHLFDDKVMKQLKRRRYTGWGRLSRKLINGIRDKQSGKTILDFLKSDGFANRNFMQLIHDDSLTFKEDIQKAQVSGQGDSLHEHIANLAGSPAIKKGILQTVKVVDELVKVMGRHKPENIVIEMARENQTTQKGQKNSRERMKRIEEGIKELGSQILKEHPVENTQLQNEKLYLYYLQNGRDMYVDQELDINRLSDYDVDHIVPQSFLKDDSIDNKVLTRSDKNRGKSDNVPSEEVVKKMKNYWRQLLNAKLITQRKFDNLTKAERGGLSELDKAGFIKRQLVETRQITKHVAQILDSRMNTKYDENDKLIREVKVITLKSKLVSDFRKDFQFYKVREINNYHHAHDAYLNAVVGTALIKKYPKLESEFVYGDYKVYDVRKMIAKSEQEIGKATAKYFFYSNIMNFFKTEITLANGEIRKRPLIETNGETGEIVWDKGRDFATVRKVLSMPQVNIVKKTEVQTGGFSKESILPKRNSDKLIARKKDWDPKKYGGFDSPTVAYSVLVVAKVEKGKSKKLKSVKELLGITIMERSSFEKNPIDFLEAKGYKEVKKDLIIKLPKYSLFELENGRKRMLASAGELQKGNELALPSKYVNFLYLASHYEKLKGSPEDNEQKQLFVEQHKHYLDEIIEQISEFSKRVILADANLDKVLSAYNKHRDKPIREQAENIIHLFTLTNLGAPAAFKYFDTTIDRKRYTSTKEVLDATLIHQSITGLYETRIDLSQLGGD

Binder	binding result
Double-strand break repair protein MRE11A (enzyme) STADALDDENTFKILVATDIHLGFMEKDAVRGNDTFVTLDEILRLAQENEVDFILLGGDLFHENKPSRKTLHTCLELLRKYCMGDRPVQFEILSDQSVNFGFSKFPWVNYQDGNLNISIPVFSIHGNHDDPTGADALCALDILSCAGFVNHFGRSMSVEKIDISPVLLQKGSTKIALYGLGSIPDERLYRMFVNKKVTMLRPKEDENSWFNLFVIHQNRSKHGSTNFIPEQFLDDFIDLVIWGHEHECKIAPTKNEQQLFYISQPGSSVVTSLSPGEAVKKHVGLLRIKGRKMNMHKIPLHTVRQFFMEDIVLANHPDIFNPDNPKVTQAIQSFCLEKIEEMLENAERERLGNSHQPEKPLVRLRVDYSGGFEPFSVLRFSQKFVDRVANPKDIIHFFRHREQKEKTGEEINFGKLITKPSEGTTLRVEDLVKQYFQTAEKNVQLSLLTERGMGEAVQEFVDKEEKDAIEELVKYQLEKTQRFLKERHIDALEDKIDEEVRRFRETRQKNTNEEDDEVREAMTRARALRSQSEESASAFSADDLMSIDLAEQMANDSDDSISAATNKGRGRGRGRRGGRGQNSASRGGSQRGRADTGLETSTRSRNSKTAVSASRNMSIIDAFKSTRQQPSRNVTTKNYSEVIEVDESDVEEDIFPTTSKTDQRWSSTSSSKIMSQSQVSKGVDFESSEDDDDDPFMNTSSLRRNRR	no binding
DNA repair protein RAD50 (other) MSRIEKMSILGVRSFGIEDKDKQIITFFSPLTILVGPNGAGKTTIIECLKYICTGDFPPGTKGNTFVHDPKVAQETDVRAQIRLQFRDVNGELIAVQRSMVCTQKSKKTEFKTLEGVITRTKHGEKVSLSSKCAEIDREMISSLGVSKAVLNNVIFCHQEDSNWPLSEGKALKQKFDEIFSATRYIKALETLRQVRQTQGQKVKEYQMELKYLKQYKEKACEIRDQITSKEAQLTSSKEIVKSYENELDPLKNRLKEIEHNLSKIMKLDNEIKALDSRKKQMEKDNSELEEKMEKVFQGTDEQLNDLYHNHQRTVREKERKLVDCHRELEKLNKESRLLNQEKSELLVEQGRLQLQADRHQEHIRARDSLIQSLATQLELDGFERGPFSERQIKNFHKLVRERQEGEAKTANQLMNDFAEKETLKQKQIDEIRDKKTGLGRIIELKSEILSKKQNELKNVKYELQQLEGSSDRILELDQELIKAERELSKAEKNSNVETLKMEVISLQNEKADLDRTLRKLDQEMEQLNHHTTTRTQMEMLTKDKADKDEQIRKIKSRHSDELTSLLGYFPNKKQLEDWLHSKSKEINQTRDRLAKLNKELASSEQNKNHINNELKRKEEQLSSYEDKLFDVCGSQDFESDLDRLKEEIEKSSKQRAMLAGATAVYSQFITQLTDENQSCCPVCQRVFQTEAELQEVISDLQSKLRLAPDKLKSTESELKKKEKRRDEMLGLVPMRQSIIDLKEKEIPELRNKLQNVNRDIQRLKNDIEEQETLLGTIMPEEESAKVCLTDVTIMERFQMELKDVERKIAQQAAKLQGIDLDRTVQQVNQEKQEKQHKLDTVSSKIELNRKLIQDQQEQIQHLKSTTNELKSEKLQISTNLQRRQQLEEQTVELSTEVQSLYREIKDAKEQVSPLETTLEKFQQEKEELINKKNTSNKIAQDKLNDIKEKVKNIHGYMKDIENYIQDGKDDYKKQKETELNKVIAQLSECEKHKEKINEDMRLMRQDIDTQKIQERWLQDNLTLRKRNEELKEVEEERKQHLKEMGQMQVLQMKSEHQKLEENIDNIKRNHNLALGRQKGYEEEIIHFKKELREPQFRDAEEKYREMMIVMRTTELVNKDLDIYYKTLDQAIMKFHSMKMEEINKIIRDLWRSTYRGQDIEYIEIRSDADENVSASDKRRNYNYRVVMLKGDTALDMRGRCSAGQKVLASLIIRLALAETFCLNCGIIALDEPTTNLDRENIESLAHALVEIIKSRSQQRNFQLLVITHDEDFVELLGRSEYVEKFYRIKKNIDQCSEIVKCSVSSLGFNVH	no binding
Nibrin (other, also called Nbs1; NBN) MWKLLPAAGPAGGEPYRLLTGVEYVVGRKNCAILIENDQSISRNHAVLTANFSVTNLSQTDEIPVLTLKDNSKYGTFVNEEKMQNGFSRTLKSGDGITFGVFGSKFRIEYEPLVACSSCLDVSGKTALNQAILQLGGFTVNNWTEECTHLVMVSVKVTIKTICALICGRPIVKPEYFTEFLKAVESKKQPPQIESFYPPLDEPSIGSKNVDLSGRQERKQIFKGKTFIFLNAKQHKKLSSAVVFGGGEARLITEENEEEHNFFLAPGTCVVDTGITNSQTLIPDCQKKWIQSIMDMLQRQGLRPIPEAEIGLAVIFMTTKNYCDPQGHPSTGLKTTTPGPSLSQGVSVDEKLMPSAPVNTTTYVADTESEQADTWDLSERPKEIKVSKMEQKFRMLSQDAPTVKESCKTSSNNNSMVSNTLAKMRIPNYQLSPTKLPSINKSKDRASQQQQTNSIRNYFQPSTKKRERDEENQEMSSCKSARIETSCSLLEQTQPATPSLWKNKEQHLSENEPVDTNSDNNLFTDTDLKSIVKNSASKSHAAEKLRSNKKREMDDVAIEDEVLEQLFKDTKPELEIDVKVQKQEEDVNVRKRPRMDIETNDTFSDEAVPESSKISQENEIGKKRELKEDSLWSAKEISNNDKLQDDSEMLPKKLLLTEFRSLVIKNSTSRNPSGINDDYGQLKNFKKFKKVTYPGAGKLPHIIGGSDLIAHHARKNTELEEWLRQEMEVQNQHAKEESLADDLFRYNPYLKRRR	no binding
